Patent US20220064322A1 (JACOBIO PHARMACEUTICALS, published 2022)

Tests used:
[1] = target: T1, cynomolgus CD73 on the cell surface (293T/17-cynoCD73 cells) (cynomolgus (Macaca fascicularis), UniProt P21589 27-547 (human entry)); test: cell-based or functional assay
T1 chain: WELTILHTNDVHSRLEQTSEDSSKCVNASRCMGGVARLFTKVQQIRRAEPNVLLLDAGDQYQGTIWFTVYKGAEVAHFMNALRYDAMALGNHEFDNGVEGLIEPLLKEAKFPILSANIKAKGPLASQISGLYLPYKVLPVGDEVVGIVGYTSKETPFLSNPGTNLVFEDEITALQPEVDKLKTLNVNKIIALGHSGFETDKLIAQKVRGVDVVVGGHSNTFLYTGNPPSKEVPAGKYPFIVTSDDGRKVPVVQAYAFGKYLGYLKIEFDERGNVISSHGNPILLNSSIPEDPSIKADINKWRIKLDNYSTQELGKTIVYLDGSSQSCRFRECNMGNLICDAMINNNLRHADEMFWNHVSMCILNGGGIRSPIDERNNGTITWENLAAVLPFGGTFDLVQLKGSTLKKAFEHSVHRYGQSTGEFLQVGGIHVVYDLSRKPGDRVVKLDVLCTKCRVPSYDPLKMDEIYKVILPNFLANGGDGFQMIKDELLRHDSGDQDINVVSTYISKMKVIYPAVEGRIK

[2] = target: T1, cynomolgus CD73 on the cell surface …; test: flow cytometry on 293T/17-Cyno CD73 cells
Method: (§1) 2×10⁶ cells resuspended in PBS buffer were distributed into 96-well plates and incubated with gradient diluted humanized antibodies for 1 h at refrigerator 4° C. or on ice, then the cells was centrifuged for 3 min 1500 rpm at 4° C. and washed three times by PBS, and diluted APC-labeled goat anti-human polyclonal antibody (Biolegend) were incubated for 30 min at refrigerator 4° C. Finally, the cells were washed three times with PBS as described above and analyzed on MACSQuant flow cytometer. GraphPad Prism software was used to generate data graphs and statistical affinity data.
(§2) The samples to be tested were incubated for 1 h at 4° C. after gradient dilution. After washing, 100 μL of APC-labeled secondary antibody was added to each well and incubated for 30 min. After washing, detecting on machine and the fluorescence value was read. GraphPad Prism software was used to generate data graphs and statistical affinity data.

[3] = target: T2, human CD73 ecto-domain recombinant protein (huCD73) (human, UniProt P21589 27-547); test: indirect ELISA, coated huCD73 recombinant protein
T2 construct: also called soluble huCD73; soluble recombinant CD73
T2 sequence: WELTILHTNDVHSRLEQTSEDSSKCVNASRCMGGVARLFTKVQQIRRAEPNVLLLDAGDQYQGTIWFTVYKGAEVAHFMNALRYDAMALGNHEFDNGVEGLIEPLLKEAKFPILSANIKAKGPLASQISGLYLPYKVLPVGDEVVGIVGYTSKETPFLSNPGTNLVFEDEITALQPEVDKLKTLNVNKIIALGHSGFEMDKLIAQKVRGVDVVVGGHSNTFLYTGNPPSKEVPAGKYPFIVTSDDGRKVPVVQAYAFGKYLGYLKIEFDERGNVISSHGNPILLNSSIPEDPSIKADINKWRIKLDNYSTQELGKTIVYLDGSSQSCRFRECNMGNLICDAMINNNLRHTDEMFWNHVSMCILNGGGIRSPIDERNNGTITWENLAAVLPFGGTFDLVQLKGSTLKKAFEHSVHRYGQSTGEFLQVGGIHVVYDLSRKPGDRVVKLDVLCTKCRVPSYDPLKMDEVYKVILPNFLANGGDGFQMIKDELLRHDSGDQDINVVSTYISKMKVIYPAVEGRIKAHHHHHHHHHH
Method: (§3) Incubated with gradient diluted 100 μL/well of antibodies for 1 h at room temperature. After the plates were washed 3 times with 200 ul/well of PBST, 100 ul of diluted HRP-labeled secondary antibody at a ratio of 1:5000 was added to each well, and the plates were incubated for 1 hour at room temperature. The plates were washed 3 times with 200 ul/well of PBST, 100 ul of TMB was added to each well and reacted for 5 minutes at room temperature in the dark. […] read the OD value. The affinity of humanized antibodies and parent antibodies were similar to the antigen (table 9).

[4] = target: T1, cynomolgus CD73 on the cell surface …; test: flow cytometry on 293T/17-Cyno CD73 cells, curve fit
Method: as §1, §2

[5] = target: T2, human CD73 ecto-domain recombinant …; test: indirect ELISA, coated huCD73 recombinant protein, curve fit
Method: as §3

[6] = target: T1, cynomolgus CD73 on the cell surface …; test: flow cytometry on 293T/17 cells expressing cynoCD73, APC-labelled goat anti-human antibody, MFI
Method: as §1, §2

[7] = target: T2, human CD73 ecto-domain recombinant …; test: indirect ELISA, plate coated with 1 ug/ml huCD73 recombinant protein, HRP-labelled secondary antibody, RFU
Method: as §3

B1: JB94H1L3 (antibody, human IgG1, kappa)
heavy: not shown
light: DIQMTQSPSSLSASVGDRVTITCKASQDINTYLSWFQQKPGKSPKSLIYRSNILVDGVPSRFSGSGSGQDYTLTISSLQPEDFAIYYCLQYDDFPYTFGQGTKLEIKRTVAAPSVFIFPPSDEQLKSGTASVVCLLNNFYPREAKVQWKVDNALQSGNSQESVTEQDSKDSTYSLSSTLTLSKADYEKHKVYACEVTHQGLSSPVTKSFNRGEC
notes: Humanized antibody of the 94 clone, human IgG1 / kappa
IC50, blockade of 5'exonuclease activity on 293T/17-Cyno CD73 cells [1]: 0.017 nM | EC50 [2]: 5.42 nM | EC50 [3]: 0.0289 nM | Bottom [4]: 1.51 fluorescence | Top [4]: 78.7 fluorescence | Bottom [5]: 48.7 OD value | Top [5]: 8290 OD value | EC50 (read off the curve) [6]: ~5 nM | EC50 (read off the curve) [7]: ~0.03 µg/mL
